The values that follow come from publication PMC3286832 (2011).

One may read the Kd as the constant that tells how readily two partners part at equilibrium. A lower Kd goes with higher affinity.

The target of the assay is T1, Dnmt3a K44me0 peptide 39-50 (Mus musculus, UniProt O88508).
T1 chain: SATARKVGRPGR

B1: G9a SET (protein)
chain: not shown
The molecule B1 yielded a Kd of approximately 5 µM.

B2: GLP SET (protein)
chain: not shown
Molecule B2 returned a Kd of approximately 5 µM.
